Laboratory results from the supplement of paper PMC5998384.

Experiments:
HeLa Kyoto [1] = test: melting temperature (median over replicates), in situ; higher = more thermally stable
HeLa Kyoto [2] = test: solubility change mitosis vs G1/S (difference of NP-40 vs SDS log2 ratios) (log2 ratio difference); higher = more soluble in mitosis
HeLa Kyoto [3] = test: solubility in G1/S (NP-40 vs SDS abundance) (log2 ratio); higher = more soluble; details: cell cycle stage: G1/S
HeLa Kyoto [4] = test: thermal stability score vs G1/S (z-score of summed log2 fold changes over temperatures); higher = more thermally stable than in G1/S
[5] = cell cycle stage: early G1 (4.5 h after nocodazole release)
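For melting temperature (median over replicates), in situ in this document: HeLa Kyoto cells synchronized by double thymidine or nocodazole block, proteins quantified by TMT10plex mass spectrometry, three independent biological replicates.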
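For solubility change mitosis vs G1/S (difference of NP-40 vs SDS log2 ratios) in this document: synchronized HeLa Kyoto cells (double thymidine block for G1/S, nocodazole release for mitosis), protein amounts in NP-40 versus SDS lysates quantified by mass spectrometry, three biological replicates.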
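For solubility in G1/S (NP-40 vs SDS abundance) in this document: HeLa Kyoto cells arrested at G1/S by double thymidine block, proteins quantified by TMT10plex mass spectrometry in mild NP-40 versus SDS extracts, three biological replicates.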
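For thermal stability score vs G1/S (z-score of summed log2 fold changes over temperatures) in this document: synchronized HeLa Kyoto cells, proteins quantified by TMT10plex mass spectrometry, three biological replicates, mitosis taken 0.5 h after nocodazole release, G1/S directly after double thymidine block.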

Sequence | melting temperature (HeLa Kyoto [1]; cell cycle stage: G1/S) | melting temperature (HeLa Kyoto [1]; cell cycle stage: mitosis) | solubility change mitosis (log2) (HeLa Kyoto [2]) | solubility in G1/S (log2) (HeLa Kyoto [3]) | thermal stability score (HeLa Kyoto [4]; [5]) | thermal stability score (HeLa Kyoto [4]; cell cycle stage: mitosis)
MTATVENLTFQKDTLGNAVDKNTSRLELRSYSLAGRHGSTEPLVLAWSSQFRRLTWGCALDALHRSPCVAASQHGVTHLIRSSRTPHSTRCRKEDAQPGHHGNGAASVTAQARGQRSVLQVPLPVPRSCLFSESFVVSVSSQSRFLASVPGTGVQRSTAADMAASTAAGKQRIPKVAKVKNKAPAEVQITAEQLLREAKERELELLPPPPQQKITDEEELNDYKLRKRKTFEDNIRKNRTVISNWIKYAQWEESLKEIQRARSIYERALDVDYRNITLWLKYAEMEMKNRQVNHARNIWDRAITTLPRVNQFWYKYTYMEEMLGNVAGARQVFERWMEWQPEEQAWHSYINFELRYKEVDRARTIYERFVLVHPDVKNWIKYARFEEKHAYFAHARKVYERAVEFFGDEHMDEHLYVAFAKFEENQKEFERVRVIYKYALDRISKQDAQELFKNYTIFEKKFGDRRGIEDIIVSKRRFQYEEEVKANPHNYDAWFDYLRLVESDAEAEAVREVYERAIANVPPIQEKRHWKRYIYLWINYALYEELEAKDPERTRQVYQASLELIPHKKFTFAKMWILYAQFEIRQKNLSLARRALGTSIGKCPKNKLFKVYIELELQLREFDRCRKLYEKFLEFGPENCTSWIKFAELETILGDIDRARAIYELAISQPRLDMPEVLWKSYIDFEIEQEETERTRNLYRRLLQRTQHVKVWISFAQFELSSGKEGSLTKCRQIYEEANKTMRNCEEKEERLMLLESWRSFEEEFGTASDKERVDKLMPEKVKKRRKVQTDDGSDAGWEEYFDYIFPEDAANQPNLKLLAMAKLWKKQQQEKEDAEHHPDEDVDESES [CRNKL1] | 47.4 °C | 48 °C | 0.252 | -0.64 | 1.73 | 2.31
MNGEADCPTDLEMAAPKGQDRWSQEDMLTLLECMKNNLPSNDSSKFKTTESHMDWEKVAFKDFSGDMCKLKWVEISNEVRKFRTLTELILDAQEHVKNPYKGKKLKKHPDFPKKPLTPYFRFFMEKRAKYAKLHPEMSNLDLTKILSKKYKELPEKKKMKYIQDFQREKQEFERNLARFREDHPDLIQNAKKSDIPEKPKTPQQLWYTHEKKVYLKVRPDATTKEVKDSLGKQWSQLSDKKRLKWIHKALEQRKEYEEIMRDYIQKHPELNISEEGITKSTLTKAERQLKDKFDGRPTKPPPNSYSLYCAELMANMKDVPSTERMVLCSQQWKLLSQKEKDAYHKKCDQKKKDYEVELLRFLESLPEEEQQRVLGEEKMLNINKKQATSPASKKPAQEGGKGGSEKPKRPVSAMFIFSEEKRRQLQEERPELSESELTRLLARMWNDLSEKKKAKYKAREAALKAQSERKPGGEREERGKLPESPKRAEEIWQQSVIGDYLARFKNDRVKALKAMEMTWNNMEKKEKLMWIKKAAEDQKRYERELSEMRAPPAATNSSKKMKFQGEPKKPPMNGYQKFSQELLSNGELNHLPLKERMVEIGSRWQRISQSQKEHYKKLAEEQQKQYKVHLDLWVKSLSPQDRAAYKEYISNKRKSMTKLRGPNPKSSRTTLQSKSESEEDDEEDEDDEDEDEEEEDDENGDSSEDGGDSSESSSEDESEDGDENEEDDEDEDDDEDDDEDEDNESEGSSSSSSSSGDSSDSDSN [UBTF] | 47.2 °C | – | 0.149 | -1.89 | 8.89 | 15.5
MERHQPRLHHPAQGSAAGTPYPSSASLRGCRESKMPRRKGPQHPPPPSGPEEPGEKRPKFHLNIRTLTDDMLDKFASIRIPGSKKERPPLPNLKTAFASSDCSAAPLEMMENFPKPLSENELLELFEKMMEDMNLNEDKKAPLREKDFSIKKEMVMQYINTASKTGSLKRSRQISPQEFIHELKMGSADERLVTCLESLRVSLTSNPVSWVESFGHEGLGLLLDILEKLISGKIQEKVVKKNQHKVIQCLKALMNTQYGLERIMSEERSLSLLAKAVDPRHPNMMTDVVKLLSAVCIVGEESILEEVLEALTSAGEEKKIDRFFCIVEGLRHNSVQLQVACMQLINALVTSPDDLDFRLHIRNEFMRCGLKEILPNLKCIKNDGLDIQLKVFDEHKEEDLFELSHRLEDIRAELDEAYDVYNMVWSTVKETRAEGYFISILQHLLLIRNDYFIRQQYFKLIDECVSQIVLHRDGMDPDFTYRKRLDLDLTQFVDICIDQAKLEEFEEKASELYKKFEKEFTDHQETQAELQKKEAKINELQAELQAFKSQFGALPADCNIPLPPSKEGGTGHSALPPPPPLPSGGGVPPPPPPPPPPPLPGMRMPFSGPVPPPPPLGFLGGQNSPPLPILPFGLKPKKEFKPEISMRRLNWLKIRPHEMTENCFWIKVNENKYENVDLLCKLENTFCCQQKERREEEDIEEKKSIKKKIKELKFLDSKIAQNLSIFLSSFRVPYEEIRMMILEVDETRLAESMIQNLIKHLPDQEQLNSLSQFKSEYSNLCEPEQFVVVMSNVKRLRPRLSAILFKLQFEEQVNNIKPDIMAVSTACEEIKKSKSFSKLLELVLLMGNYMNAGSRNAQTFGFNLSSLCKLKDTKSADQKTTLLHFLVEICEEKYPDILNFVDDLEPLDKASKVSVETLEKNLRQMGRQLQQLEKELETFPPPEDLHDKFVTKMSRFVISAKEQYETLSKLHENMEKLYQSIIGYYAIDVKKVSVEDFLTDLNNFRTTFMQAIKENIKKREAEEKEKRVRIAKELAERERLERQQKKKRLLEMKTEGDETGVMDNLLEALQSGAAFRDRRKRTPMPKDVRQSLSPMSQRPVLKVCNHENQKVQLTEGSRSHYNINCNSTRTPVAKELNYNLDTHTSTGRIKAAEKKEACNVESNRKKETELLGSFSKNESVPEVEALLARLRAL [DIAPH3] | 46.8 °C | 46.4 °C | -0.183 | 0.186 | 1.77 | 3.55
MSGFSTEERAAPFSLEYRVFLKNEKGQYISPFHDIPIYADKDVFHMVVEVPRWSNAKMEIATKDPLNPIKQDVKKGKLRYVANLFPYKGYIWNYGAIPQTWEDPGHNDKHTGCCGDNDPIDVCEIGSKVCARGEIIGVKVLGILAMIDEGETDWKVIAINVDDPDAANYNDINDVKRLKPGYLEATVDWFRRYKVPDGKPENEFAFNAEFKDKDFAIDIIKSTHDHWKALVTKKTNGKGISCMNTTLSESPFKCDPDAARAIVDALPPPCESACTVPTDVDKWFHHQKN [PPA1] | 54.1 °C | 54.2 °C | 0.0519 | 0.43 | 0.184 | -1.97
MSSLAVRDPAMDRSLRSVFVGNIPYEATEEQLKDIFSEVGSVVSFRLVYDRETGKPKGYGFCEYQDQETALSAMRNLNGREFSGRALRVDNAASEKNKEELKSLGPAAPIIDSPYGDPIDPEDAPESITRAVASLPPEQMFELMKQMKLCVQNSHQEARNMLLQNPQLAYALLQAQVVMRIMDPEIALKILHRKIHVTPLIPGKSQSVSVSGPGPGPGPGLCPGPNVLLNQQNPPAPQPQHLARRPVKDIPPLMQTPIQGGIPAPGPIPAAVPGAGPGSLTPGGAMQPQLGMPGVGPVPLERGQVQMSDPRAPIPRGPVTPGGLPPRGLLGDAPNDPRGGTLLSVTGEVEPRGYLGPPHQGPPMHHASGHDTRGPSSHEMRGGPLGDPRLLIGEPRGPMIDQRGLPMDGRGGRDSRAMETRAMETEVLETRVMERRGMETCAMETRGMEARGMDARGLEMRGPVPSSRGPMTGGIQGPGPINIGAGGPPQGPRQVPGISGVGNPGAGMQGTGIQGTGMQGAGIQGGGMQGAGIQGVSIQGGGIQGGGIQGASKQGGSQPSSFSPGQSQVTPQDQEKAALIMQVLQLTADQIAMLPPEQRQSILILKEQIQKSTGAS [CSTF2T] | 52.6 °C | 51.9 °C | 0.114 | -0.00517 | -0.131 | 0.0128
MNEVSVIKEGWLHKRGEYIKTWRPRYFLLKSDGSFIGYKERPEAPDQTLPPLNNFSVAECQLMKTERPRPNTFVIRCLQWTTVIERTFHVDSPDEREEWMRAIQMVANSLKQRAPGEDPMDYKCGSPSDSSTTEEMEVAVSKARAKVTMNDFDYLKLLGKGTFGKVILVREKATGRYYAMKILRKEVIIAKDEVAHTVTESRVLQNTRHPFLTALKYAFQTHDRLCFVMEYANGGELFFHLSRERVFTEERARFYGAEIVSALEYLHSRDVVYRDIKLENLMLDKDGHIKITDFGLCKEGISDGATMKTFCGTPEYLAPEVLEDNDYGRAVDWWGLGVVMYEMMCGRLPFYNQDHERLFELILMEEIRFPRTLSPEAKSLLAGLLKKDPKQRLGGGPSDAKEVMEHRFFLSINWQDVVQKKLLPPFKPQVTSEVDTRYFDDEFTAQSITITPPDRYDSLGLLELDQRTHFPQFSYSASIRE [AKT2] | 50.5 °C | 50.2 °C | -0.26 | -0.0498 | 1.03 | 0.619
MATEGMILTNHDHQIRVGVLTVSDSCFRNLAEDRSGINLKDLVQDPSLLGGTISAYKIVPDEIEEIKETLIDWCDEKELNLILTTGGTGFAPRDVTPEATKEVIEREAPGMALAMLMGSLNVTPLGMLSRPVCGIRGKTLIINLPGSKKGSQECFQFILPALPHAIDLLRDAIVKVKEVHDELEDLPSPPPPLSPPPTTSPHKQTEDKGVQCEEEEEEKKDSGVASTEDSSSSHITAAAIAAKIPDSIISRGVQVLPRDTASLSTTPSESPRAQATSRLSTASCPTPKVQSRCSSKENILRASHSAVDITKVARRHRMSPFPLTSMDKAFITVLEMTPVLGTEIINYRDGMGRVLAQDVYAKDNLPPFPASVKDGYAVRAADGPGDRFIIGESQAGEQPTQTVMPGQVMRVTTGAPIPCGADAVVQVEDTELIRESDDGTEELEVRILVQARPGQDIRPIGHDIKRGECVLAKGTHMGPSEIGLLATVGVTEVEVNKFPVVAVMSTGNELLNPEDDLLPGKIRDSNRSTLLATIQEHGYPTINLGIVGDNPDDLLNALNEGISRADVIITSGGVSMGEKDYLKQVLDIDLHAQIHFGRVFMKPGLPTTFATLDIDGVRKIIFALPGNPVSAVVTCNLFVVPALRKMQGILDPRPTIIKARLSCDVKLDPRPEYHRCILTWHHQEPLPWAQSTGNQMSSRLMSMRSANGLLMLPPKTEQYVELHKGEVVDVMVIGRL [GPHN] | 55.6 °C | 54.6 °C | -0.057 | 0.226 | -0.16 | -1.19
MQGGEPVSTMKVSESEGKLEGQATAVTPNKNSSCGGGISSSSSSRGGSAKGWQYSDHMENVYGYLMKYTNLVTGWQYRFFVLNNEAGLLEYFVNEQSRNQKPRGTLQLAGAVISPSDEDSHTFTVNAASGEQYKLRATDAKERQHWVSRLQICTQHHTEAIGKNNPPLKSRSFSLASSSNSPISQRRPSQNAISFFNVGHSKLQSLSKRTNLPPDHLVEVREMMSHAEGQQRDLIRRIECLPTSGHLSSLDQDLLMLKATSMATMNCLNDCFHILQLQHASHQKGSLPSGTTIEWLEPKISLSNHYKNGADQPFATDQSKPVAVPEEQPVAESGLLAREPEEINADDEIEDTCDHKEDDLGAVEEQRSVILHLLSQLKLGMDLTRVVLPTFILEKRSLLEMYADFMSHPDLFIAITNGATAEDRMIRFVEYYLTSFHEGRKGAIAKKPYNPIIGETFHCSWKMPKSEVASSVFSSSSTQGVTNHAPLSGESLTQVGSDCYTVRFVAEQVSHHPPVSGFYAECTERKMCVNAHVWTKSKFLGMSIGVTMVGEGILSLLEHGEEYTFSLPCAYARSILTVPWVELGGKVSVNCAKTGYSASITFHTKPFYGGKLHRVTAEVKHNITNTVVCRVQGEWNSVLEFTYSNGETKYVDLTKLAVTKKRVRPLEKQDPFESRRLWKNVTDSLRESEIDKATEHKHTLEERQRTEERHRTETGTPWKTKYFIKEGDGWVYHKPLWKIIPTTQPAE [OSBPL11] | 50 °C | 50.4 °C | -0.0415 | -0.139 | 0.575 | 1.25
